One assay addresses HLA-B*35:01. Put plainly: IEDB peptide-MHC binding, purified MHC/competitive/fluorescence; filed as Kd, often an IC50 or EC50 that approximates it; ≥ and ≤ were set here for values at or beyond the usual limits of such assays.
For the next assay, the target named is HLA-B*58:01. Put plainly: IEDB peptide-MHC binding, purified MHC/direct/fluorescence; filed as Kd, often an IC50 or EC50 that approximates it; ≥ and ≤ were set here for values at or beyond the usual limits of such assays.
Another assay concerns the target HLA-B*48:01. The description is as above. The following applies: source organism: Escherichia coli O157:H7.
The target of assay [1] is HLA-B*18:01. Described as above. Particulars: source organism: Escherichia coli O157:H7.
In assay [2] the target is HLA-A*02:01. Described as above.
The next assay addresses HLA-A*68:02. The assay is described as above. The following applies: source organism: Escherichia coli O157:H7.
A further assay has as its target HLA-A*31:01. The assay is described as above.
In another assay the target is HLA-B*27:05. The description is as above.
For assay [3], the target named is HLA-A*69:01. The description is as above.
In a further assay the target is HLA-B*07:02. The assay is described as above.
Assay [4] addresses HLA-A*01:01. The description is as above.
The target of assay [5] is HLA-B*15:17. Described as above.
For assay [6], the target named is HLA-A*11:01. Described as above.
For assay [7], the target named is HLA-B*40:01. The description is as above.
Another assay deals with HLA-B*57:01. The description is as above.
The target of assay [8] is HLA-A*01:01. The assay is described as follows: IEDB peptide-MHC binding, purified MHC/competitive/fluorescence; filed as Kd, often an IC50 or EC50 that approximates it; ≥ and ≤ were set here for values at or beyond the usual limits of such assays.
The target of assay [9] is HLA-B*15:01. Described as above. The following applies: source organism: Yersinia pestis Nepal516.
For assay [10], the target named is HLA-A*03:01. The description is as above. The following applies: source organism: Yersinia pestis Nepal516.
For assay [11], the target named is HLA-A*02:01. The description is as above.
For assay [12], the target named is HLA-A*69:01. The assay is described as above. The following applies: source organism: Human immunodeficiency virus 1.
The target of a further assay is HLA-A*02:19. Described as above.
Assay [13] deals with HLA-A*02:01. The assay is described as follows: IEDB peptide-MHC binding, purified MHC/competitive/fluorescence; ≥ and ≤ were set here for values at or beyond the usual limits of such assays. Particulars: source organism: Zaire ebolavirus.
Assay [14] deals with HLA-A*24:02. The description is as above.
Assay [15] addresses HLA-B*15:01. Described as above.
Assay [16] concerns the target HLA-A*24:02. The assay is described as follows: IEDB peptide-MHC binding, purified MHC/direct/fluorescence; filed as Kd, often an IC50 or EC50 that approximates it; ≥ and ≤ were set here for values at or beyond the usual limits of such assays. The following applies: source organism: Influenza A virus (A/equine/New York/1/1999(H3N8)).
In the next assay the target is HLA-B*08:01. The description is as above. Particulars: source organism: Influenza A virus (A/equine/New York/1/1999(H3N8)).
The target in assay [17] is HLA-B*15:01. Described as above.
The target in another assay is HLA-B*15:09. Described as above. Particulars: source organism: Influenza A virus(A/swine/Shandong/fNY/2003(H9N2)).
The target in assay [18] is HLA-A*03:01. The assay is described as above.
Assay [19] deals with HLA-A*11:01. Put plainly: IEDB peptide-MHC binding, purified MHC/competitive/fluorescence; ≥ and ≤ were set here for values at or beyond the usual limits of such assays. Particulars: source organism: Vaccinia virus Copenhagen.
The next assay concerns the target HLA-A*02:03. The assay is described as follows: IEDB peptide-MHC binding, purified MHC/competitive/fluorescence; filed as Kd, often an IC50 or EC50 that approximates it; ≥ and ≤ were set here for values at or beyond the usual limits of such assays. Particulars: source organism: Human immunodeficiency virus 1.
Assay [20] addresses HLA-B*15:17. The assay is described as above. The following applies: source organism: Human immunodeficiency virus 1.
In assay [21] the target is HLA-B*18:01. The assay is described as follows: IEDB peptide-MHC binding, purified MHC/competitive/radioactivity; filed as Kd, often an IC50 or EC50 that approximates it; ≥ and ≤ were set here for values at or beyond the usual limits of such assays.
The next assay deals with HLA-B*40:02. The assay is described as above.
In another assay the target is HLA-B*45:01. The description is as above.
In the next assay the target is HLA-B*44:02. The assay is described as above.
In a further assay the target is HLA-B*44:03. The assay is described as above.
In assay [22] the target is HLA-B*40:01. Described as above.
The mark [23] stands for this setting: source organism: Human immunodeficiency virus 1.
The mark [24] stands for this setting: source organism: Escherichia coli O157:H7.
[25] abbreviates: source organism: Yersinia pestis Nepal516.
Setting [26] is: source organism: Zaire ebolavirus.
Setting [27] is: source organism: Bacillus anthracis str. A2012.
Setting [28] is: source organism: Influenza A virus (A/equine/New York/1/1999(H3N8)).
Setting [29] is: source organism: Bacillus anthracis.
[30] abbreviates: source organism: Vaccinia virus Copenhagen.
[31] abbreviates: source organism: Entamoeba histolytica HM-1:IMSS.
Setting [32] is: source organism: Mammarenavirus lassaense.
[33] abbreviates: source organism: SARS coronavirus Tor2.

Here are results for 17 sequences from the Immune Epitope Database (IEDB).

Where only a bound is given, the exact number is not on record here.

What is called Kd is the constant that tells how readily two partners part at equilibrium. For the sequence WASRELERF, the Kd is 56.8 nM with HLA-B*35:01 (setting [23]) and 27.5 nM in the assay with HLA-B*58:01 (source organism: Human immunodeficiency virus type 1 BH10).
With HEVHAVWPG, the Kd is not below 20000 nM with HLA-B*48:01; 193 nM with HLA-B*18:01 [1]; not below 20000 nM with HLA-A*02:01 [2] (setting [24]); not below 20000 nM with HLA-A*68:02; not below 20000 nM with HLA-A*31:01 (setting [24]); not below 20000 nM in the assay with HLA-B*27:05 (setting [24]). The dissociation constant (Kd) with HLA-B*58:01 (setting [24]), in the assay with HLA-A*69:01 [3] (setting [24]), with HLA-B*07:02 (setting [24]), with HLA-A*01:01 [4] (setting [24]), in the assay with HLA-B*15:17 [5] (setting [24]) and with HLA-A*11:01 [6] (setting [24]) was not below 20000 nM throughout. In addition, the equilibrium dissociation constant (Kd) with HLA-B*40:01 [7] (setting [24]) and with HLA-B*57:01 (setting [24]) was not below 20000 nM each time.
As for CLLSHTLAY, the Kd in the assay with HLA-A*01:01 [8] (setting [25]) came to 1060 nM; in the assay with HLA-B*15:01 [9], 225 nM; in the assay with HLA-A*03:01 [10], 64.3 nM; with HLA-B*35:01 (setting [25]) it was 24.6 nM.
Turning to LTFGWCFKL, the results for the Kd with HLA-A*02:01 [11] (setting [23]), in the assay with HLA-A*69:01 [12] and with HLA-A*02:19 (setting [23]) were 152 nM, 46.5 nM and 755 nM, respectively.
The term IC50 denotes the midpoint of a concentration-inhibition curve. Lower therefore signals inhibition by little substance. On to VKYLEGHGF, for which the figures for the IC50 with HLA-A*02:01 [13], with HLA-A*24:02 [14] (setting [26]) and in the assay with HLA-B*15:01 [15] (setting [26]) were not below 160000 nM, 14400 nM and not below 72100 nM, respectively.
Regarding HSNASTLLY, in the assay with HLA-A*01:01 [8] (source organism: Staphylococcus aureus subsp. aureus N315), the Kd was determined as 2.5 nM.
As for ITTFFTFAY, the figures for the Kd with HLA-A*01:01 [8] (setting [27]) and in the assay with HLA-B*35:01 (setting [27]) were 140 nM and 192 nM, respectively.
For the sequence VAGGTSSVY, the Kd with HLA-B*35:01 (source organism: Influenza A virus (A/quail/Hong Kong/SF550/00(H6N1))) is 10.9 nM; with HLA-A*02:01 [2] (setting [28]), not below 20000 nM; in the assay with HLA-A*24:02 [16], not below 20000 nM; with HLA-A*31:01 (setting [28]), not below 20000 nM; with HLA-B*27:05 (setting [28]), not below 20000 nM; in the assay with HLA-B*58:01 (setting [28]) it was 2890 nM. Besides, the Kd in the assay with HLA-A*69:01 [3] (setting [28]) was not below 20000 nM; with HLA-B*07:02 (setting [28]), not below 20000 nM; in the assay with HLA-A*01:01 [4] (setting [28]) it was not below 20000 nM; in the assay with HLA-B*08:01, not below 20000 nM; with HLA-A*11:01 [6] (setting [28]), not below 20000 nM; with HLA-B*15:01 [17] (source organism: Influenza A virus (A/Puerto Rico/8/34/Mount Sinai(H1N1))), 129 nM. The Kd with HLA-B*15:09, with HLA-B*40:01 [7] (setting [28]) and in the assay with HLA-A*03:01 [18] (setting [28]) was not below 20000 nM in each case.
For KLTEAITAA, the IC50 in the assay with HLA-A*02:01 [13] is 2050 nM; in the assay with HLA-B*15:01 [15] (setting [26]), not below 171000 nM.
For RTIQGQRFW, the dissociation constant Kd with HLA-A*02:01 [2] (setting [29]), in the assay with HLA-B*27:05 (setting [29]), in the assay with HLA-B*58:01 (setting [29]), in the assay with HLA-B*07:02 (setting [29]), in the assay with HLA-A*01:01 [4] (setting [29]) and with HLA-B*15:17 [5] (setting [29]) was not below 20000 nM in each case. For the same sequence, the Kd with HLA-B*15:01 [17] (setting [29]), with HLA-A*03:01 [18] (setting [29]) and with HLA-B*57:01 (setting [29]) was not below 20000 nM each time.
As to QAFEAGVDF, the IC50 was not below 475000 nM with HLA-A*02:01 [13], 29400 nM in the assay with HLA-A*24:02 [14] (setting [26]) and 30600 nM in the assay with HLA-B*15:01 [15] (setting [26]).
The matching figures for YQATGFGTN: not below 146000 nM, not below 231000 nM and 22700 nM.
As for SQMTSTFIM, the IC50 with HLA-A*24:02 [14] (setting [30]) was found to be 2160 nM; in the assay with HLA-A*11:01 [19], 1590 nM; with HLA-B*15:01 [15] (setting [30]), 1750 nM.
As to LYNTVATLY, the dissociation constant Kd with HLA-A*02:01 [11] (setting [23]) was 1160 nM; with HLA-A*02:03, 570 nM; in the assay with HLA-B*15:17 [20], not below 20000 nM.
Turning to SMFYGIFPS, the Kd amounted to 0.2 nM in the assay with HLA-A*02:01 [11] (setting [31]) and 285 nM with HLA-A*02:19 (setting [31]).
For the sequence SDLDMLTQS, the Kd with HLA-B*18:01 [21] (setting [32]) is not below 77500 nM; in the assay with HLA-B*40:02 (setting [32]), 6100 nM; with HLA-B*45:01 (setting [32]), not below 77700 nM; with HLA-B*44:02 (setting [32]), not below 42200 nM; with HLA-B*44:03 (setting [32]), not below 78100 nM; in the assay with HLA-B*40:01 [22] (setting [32]), not below 24700 nM.
Take AEWVLAYML: the Kd in the assay with HLA-B*18:01 [21] (setting [33]) stood at 418 nM; with HLA-B*40:02 (setting [33]), 4.02 nM; with HLA-B*45:01 (setting [33]), 36.5 nM; with HLA-B*44:02 (setting [33]), 13.9 nM; in the assay with HLA-B*44:03 (setting [33]) it was 5.04 nM; in the assay with HLA-B*40:01 [22] (setting [33]), 4.75 nM.
